In test [1] the target is T1, 人全长重组tau(2N4R) (human, UniProt P10636 2-758).
T1 construct: also called human full-length recombinant tau; 全长重组Tau蛋白
The test can be described thus: SPR, single-cycle kinetics.

In test [2] the target is T1, 人全长重组tau(2N4R). Description: SPR, Biacore T200, 25 °C, mAb captured by anti-Fc on a CM4 chip, tau as analyte, 1:1 Langmuir fit.

T1 sequence (P10636 other isoform, or with tags, fused parts or gaps limits assumed): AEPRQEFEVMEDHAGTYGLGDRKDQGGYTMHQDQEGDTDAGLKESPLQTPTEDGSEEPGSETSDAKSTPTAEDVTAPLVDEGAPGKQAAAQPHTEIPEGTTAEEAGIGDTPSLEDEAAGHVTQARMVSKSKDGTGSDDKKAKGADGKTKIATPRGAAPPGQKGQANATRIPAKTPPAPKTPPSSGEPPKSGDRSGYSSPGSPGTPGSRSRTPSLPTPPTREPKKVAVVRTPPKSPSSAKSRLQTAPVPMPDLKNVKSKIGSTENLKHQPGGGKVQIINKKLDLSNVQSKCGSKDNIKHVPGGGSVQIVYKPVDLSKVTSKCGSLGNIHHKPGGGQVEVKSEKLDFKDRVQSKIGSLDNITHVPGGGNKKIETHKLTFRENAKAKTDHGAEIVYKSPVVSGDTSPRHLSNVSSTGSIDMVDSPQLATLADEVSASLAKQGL

B1: PT1B1183 (antibody, human IgG1, kappa, V domains shown)
VH: QVQLVQSGAEVKKPGASVKVSCKASGYTFTSYWITWVRQRPGQGLEWMGDIHPGRGSTKYAQKLQGRVTMTTDTSTSTAYMELRSLRSDDTAVYYCARRWGFDYWGQGTLVTVSS
VL: DIVMTQTPLSSPVTLGQPASISCRSSKSLLYKDGKTYLNWFQQRPGQSPRLLIYLMSTRASGVPDRFSGSGAGTDFTLKISRVEAEDVGVYYCQQLVDYPLTFGQGTKLEIKR
notes: Humanised antibody obtained from PT1B1153 by modifying framework region 2 of the light chain
With B1, the binding result in test [1] is on record as “binds”.

B2: PT1B545 (antibody, mouse IgG2a, kappa, V domains shown)
VH: QVQLQQPGAELVKPGASVKMSCKASGYTFTSYWITWVKQRPGQGLEWIGDIHPGRGSTKSNEKFKSKATLTVDTSSSTAYMQFSSLTSEDSAVYYCARRWGFDYWGQGTTLTVSS
VL: DIVITQDELSNPVTSGESVSISCRSSKSLLYKDGKTYLNWFLQRPGQSPQLLIYLMSTRASGVSDRFSGSGSGTDFTLEISRVKAEDVGVYYCQQLVDYPLTFGAGTKLELKR
notes: Parental mouse mAb; also called PT/66; 亲本mAb PT/66
B2: in test [2], the binding result was “binds”.

(Values after CN117083298A (CENTOCOR ORTHO BIOTECH INC, dated 2023).)
